Source: patent US9512236B2, “Amino acid sequences directed against GPCRS and polypeptides comprising the same for the treatment of GPCR-related diseases and disorders” (Ablynx N.V., priority 2006, dated 2016)
Residue numbers refer to the chain shown, from its start.

Columns and labels:
hCXCR4/Gαqi5 = biological target: T1, hCXCR4/Gαqi5 (Homo sapiens, UniProt P61073); assay: CXCL12-induced inositol phosphate accumulation in HEK293T cells co-transfected with CXCR4 and Gαqi5; format: cell-based; conditions: 30 nM CXCL12
T1 construct: expressed in transfected cells; host or cells: HEK293T
Description: In an effort to functionally characterize the Nanobodies 238D2 and 238D4, the inventors measured their ability to activate G-protein signaling or to inhibit the CXCL12-induced G-protein signaling in HEK293T cells transiently co-transfected with cDNAs encoding CXCR4 and Gαqi5. This assay is based upon the use of the chimeric Gαqi5-protein that contains of a Gαq backbone with the 5 C-terminal amino acids replaced by those from Gαi. The chimeric G-protein is activated by CXCR4 like a Gαi subunit but transduces signals like Gαq proteins (Coward, P., et al., Chimeric G Proteins Allow a High-Throughput Signaling Assay of […] Receptors, Analytical Biochemistry (1999) 270: 242-248). Thus, the activation of Gαqi5 can be quantified by the measurement of accumulated inositol phosphates.
Methods: On day 1, HEK293T cells were plated out at a density of 2 million cells/dish. On day 2, these cells were transfected with 2.5 μg CXCR4 DNA and 2.5 μg Gαqi5, using the PEI method. Cells were plated out the next day in poly-L-lysine coated 24 well plates (500 μl/well) and labeled after 4-6 hours with 2 μCi/ml 3H-inositol in inositol-free medium. […] After this final incubation, the reaction was stopped by aspiration of stimulation medium and addition of 10 mM formic acid (FIG. 4).

CXCR7 point mutants [1] = biological target: CXCR7 point mutants (Homo sapiens, UniProt P25106, W19A); assay: Binding to a set of 10 point mutants of CXCR7; conditions: W19A point mutant
Procedure: (§1) In a third approach, Nanobodies were tested for their binding to a set of 10 point mutants of CXCR7 (S9A, F14Y, 117L, S18N, W19A, S23G, D25A, V32A, M33Q, N36T), which yielded information on the individual NANOBODY® (VHH) epitopes.

CXCR7 point mutants [2] = biological target: CXCR7 point mutants (Homo sapiens, UniProt P25106, M33Q); assay: Binding to a set of 10 point mutants of CXCR7; conditions: M33Q point mutant
Procedure: as §1

CXCR7 = CXCR7 (Homo sapiens, UniProt P25106); assay: Competition with Alexa647-labelled 14G03 in FACS analysis; format: binding; conditions: Alexa647-labelled 14G03, FACS
Description: Nanobodies 08A05, 08A10, 07C03, 01C10 and 14G03, Mab 8F11 (Biolegend), Mab 11G8 (R&D) and Mab 9C4 (MBL) were further tested for competition with Alexa647-labelled 14G03 in FACS analysis.

CB1R = assay: Binding of clones measured on Biacore (Table B-2); conditions: read-out: Binding of clones against CB1R
Procedure: (§2) Binding of 4 clones directed against CB1R and of 4 clones against PTHR was measured on Biacore.

CXCR4 = biological target: T2, CXCR4 (Homo sapiens, UniProt P61073); assay: [125I]-CXCL12 competition binding on membranes from HEK293T cells transiently expressing CXCR4 (Table I)
T2 construct: expressed in transfected cells; host or cells: HEK293T (membranes)
Description: Another example of a therapeutic relevant GPCR is CXCR4, which was previously identified as such in Table C and Table D of US20100062004. This representative GPCR has now been further investigated by the present inventors. Different pools of highly similar clones able to inhibit specific [^125I]-CXCL12 binding were identified in a CXCR4 competition binding assay. Nanobodies representing these different pools were purified and further pharmacologically analyzed as detailed in the Example section of WO09/138519. In particular two representative monovalent Nanobodies 238D2 and 238D4 and different mono- and heterobivalent constructs thereof have been analyzed in depth:
Additionally, the inventors engineered a series of mono-specific bivalent and biparatopic CXCR4 constructs. […] Overall, short peptide linkers were used favoring binding to CXCR4 monomers.
In membrane binding experiments mAb 12G5, which is a known neutralizing CXCR4 antibody, seems only to displace 50% of radiolabeled 125I-CXCL12 (CXCR4 ligand).

PTHR = biological target: T3, PTHR (Homo sapiens, UniProt Q03431); assay: Binding of clones measured on Biacore (Table B-3)
T3 sequence (Q03431 27-593): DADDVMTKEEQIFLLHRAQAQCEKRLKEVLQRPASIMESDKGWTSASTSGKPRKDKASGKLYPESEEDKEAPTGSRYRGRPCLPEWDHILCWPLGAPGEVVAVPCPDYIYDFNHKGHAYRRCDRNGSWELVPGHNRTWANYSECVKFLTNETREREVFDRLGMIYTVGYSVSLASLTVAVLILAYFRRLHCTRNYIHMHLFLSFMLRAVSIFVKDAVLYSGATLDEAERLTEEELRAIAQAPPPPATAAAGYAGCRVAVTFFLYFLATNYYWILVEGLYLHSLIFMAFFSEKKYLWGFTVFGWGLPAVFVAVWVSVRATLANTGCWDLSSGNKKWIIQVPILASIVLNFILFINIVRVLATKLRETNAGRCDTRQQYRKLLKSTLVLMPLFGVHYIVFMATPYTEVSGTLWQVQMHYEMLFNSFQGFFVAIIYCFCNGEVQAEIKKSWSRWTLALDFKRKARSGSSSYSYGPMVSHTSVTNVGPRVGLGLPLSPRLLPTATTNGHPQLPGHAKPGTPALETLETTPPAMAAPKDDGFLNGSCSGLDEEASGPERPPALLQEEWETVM
Procedure: as §2

CXCR7 point mutants (Homo sapiens, UniProt P25106, W19A), sequence (P25106 whole entry W19A): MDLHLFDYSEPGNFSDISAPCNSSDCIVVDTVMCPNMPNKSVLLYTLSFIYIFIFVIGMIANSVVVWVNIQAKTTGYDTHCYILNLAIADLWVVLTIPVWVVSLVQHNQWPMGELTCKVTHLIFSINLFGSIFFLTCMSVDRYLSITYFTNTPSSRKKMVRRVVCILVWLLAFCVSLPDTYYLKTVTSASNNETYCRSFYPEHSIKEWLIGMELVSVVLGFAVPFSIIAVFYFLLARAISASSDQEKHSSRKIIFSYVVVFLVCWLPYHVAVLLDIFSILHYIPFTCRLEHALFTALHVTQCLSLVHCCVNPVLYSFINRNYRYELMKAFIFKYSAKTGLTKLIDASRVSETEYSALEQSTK
CXCR7, sequence (P25106 whole entry): as the sequence (P25106 whole entry W19A) above, with A19W counted along it
T2 sequence (P61073 whole entry): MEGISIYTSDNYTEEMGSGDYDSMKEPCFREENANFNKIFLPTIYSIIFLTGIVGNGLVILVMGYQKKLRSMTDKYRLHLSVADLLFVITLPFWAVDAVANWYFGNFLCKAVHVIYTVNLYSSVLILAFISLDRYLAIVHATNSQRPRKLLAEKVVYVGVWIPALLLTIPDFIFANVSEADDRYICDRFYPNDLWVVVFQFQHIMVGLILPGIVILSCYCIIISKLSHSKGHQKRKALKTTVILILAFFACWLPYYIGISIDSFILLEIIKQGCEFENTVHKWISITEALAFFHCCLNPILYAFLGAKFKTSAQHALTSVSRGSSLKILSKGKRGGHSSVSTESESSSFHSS
CXCR7 point mutants (Homo sapiens, UniProt P25106, M33Q), sequence (P25106 whole entry M33Q): as the sequence (P25106 whole entry W19A) above, with A19W, M33Q counted along it
T1 sequence (P61073 whole entry): as the sequence (P61073 whole entry) above

c1cc(CN2CCCNCCNCCCNCC2)ccc1CN1CCCNCCNCCCNCC1 [AMD3100, plerixafor, reference compound]
concentration needed to inhibit CXCR4 function (hCXCR4/Gαqi5): 1 µM

B1: 08A05: Nanobody against human CXCR7, Group 2 (protein)
VHH: EVQLVESGGGLVQAGDSLRLSCAASGLTFSNYDMGWFRQAPGKEREFVGASWWSGGAPYYSDSVKGRFTISRDNAKNTVYLQANSLRPEDTAVYYCAAKRLRSFASGGSYDYWGQGTQVTVSS
modifications: Nanobody, Nanobody constructs or fragments thereof
effect of W19A mutation on binding (CXCR7 point mutants [1]): did not affect | epitope includes residue M33 (CXCR7 point mutants [2]): included residue M33 | competition with 14G03 binding to CXCR7 (CXCR7): compete

B2: vHH6H4 (protein)
VHH: EVQLVESGGGLVQAGGSLRLACAASGSIFSFNAMGWYRQAPGKQRELLAVITRDGITKYADSVKGRFTISRDNAKNTMYLQMNSLKPEDTAVYYCHTGLPTGRGSHSDYWGQGTQVTVSS
Kd (CB1R): 36 nM

B3: L13 (protein)
chain: EVQLMESGGGLVQAGGSLRLSCAASGRTFNNYAMGWFRRAPGKEREFVAAITRSGVRSGVSAIYGDSVKDRFTISRDNAKNTLYLQMNSLKPEDTAVYTCAASAIGSGALRRFEYDYSGQGTQVTVSSGGGGSGGGGSGGGGSGGGGSEVQLMESGGGLVQAGGSLRLSCAASGRTFNNYAMGWFRRAPGKEREFVAAITRSGVRSGVSAIYGDSVKDRFTISRDNAKNTLYLQMNSLKPEDTAVYTCAASAIGSGALRRFEYDYSGQGTQVTVSS
Displacem. (%) (maximal displacement of [125I]-CXCL12) (CXCR4; membranes from HEK293T cells transiently expressing CXCR4, means ± S.E.M.): 96 ± 5%

B4: 14G03: Nanobody against human CXCR7, Group 2 (protein)
VHH: EVQLVESGGGLVQPGGSLRISCAASGSIYLINYMGWYRQAPGKQRELVATLTSGGSTNYAGSVKGRFAISRDNAKNTVYLQMNSLKPEDTAVYYCNIGGTLYDRRRFESWGQGTQVTVSS
modifications: Nanobody, Nanobody constructs or fragments thereof
effect of W19A mutation on binding (CXCR7 point mutants [1]): did not affect | epitope includes residue M33 (CXCR7 point mutants [2]): included residue M33

B5: 01C10: Nanobody against human CXCR7, Group 1 (protein)
VHH: EVQLVESGGGLVQTGASLRLSCAASGRTFSNYAMGWFRQAPGKERERVAAITPRAFTTYYADSVKGRFTISRDNAKNTAYLQMVSLKPEDTAVYYCAAQLVGSGSNLGRQESYAYWGQGTQVTVSS
modifications: Nanobody, Nanobody constructs or fragments thereof
effect of W19A mutation on binding (CXCR7 point mutants [1]): affected | competition with 14G03 binding to CXCR7 (CXCR7): does not

B6: vHH26A6 (protein)
VHH: EVQLVESGGGLVQAGGSLRLSCAASRSRSSFDDMGWYRQAPGKQREFVGGITLGGSTIYADSVKGRFTISMDSARNTGYLQMNSLKPEDTAVYYCNAALDGYSGSSWGQGTQVTVSS
Kd (PTHR; PTHR − CaCl2): 17 nM

B7: vHH26F2 (protein)
VHH: EVQLVESGGGLVQAGGSLRLSCVASGFSFDDYAIGWFRQAPGQDREPLACITSGGTRNYNPSVMARFRIDRDNSVKTVYLQINTLKPEDTAVYYCSTELDRQGGSAHECREYDTWGQGTQVTVSS
Kd (PTHR; PTHR + CaCl2): 70 nM | Kd (PTHR; PTHR Fos12): 360 nM

B8: vHH23A3 (protein)
VHH: EVQLVESGGGLVQAGGSLRLSCAASGLTFSNYAMGWFRQAPGKEREWVASINWSGGSTYYEDSVEGRFTISRDNAKNTVNLQMNSLKPEDTAVYYCAAKRGHYSREYDYWGQGTQVTVSS
Kd (PTHR; PTHR − CaCl2): 22 nM

B9: vHH6B7 (protein)
VHH: EVQLVESGGGLVQAGGSLRLSCAASGRTLRNYDMGWFRQAPGKEREFVATIRWSTSETYYADSVKGRFTISSDNAKNTVDLQMNSLTPGDTGVYYCAARSVYSYDYNYWGQGTQVTVSS
Kd (CB1R): 12 nM

B10: vHH5G11 (protein)
VHH: B9 VHH with E6K, R30S, S56G, A61T, S72K, A75T, G89E, G92A, A98S, D105E
Kd (CB1R): 12 nM

B11: 238D2-20GS-238D4: biparatopic CXCR4 Nanobody, 238D2 linked to 238D4 via 20 amino acid GGGGS-repeat linker (protein)
chain: EVQLVESGGGLVQTGGSLRLSCAASGFTFSSYAMSWVRQAPGKGLEWVSGIKSSGDSTRYAGSVKGRFTISRDNAKNMLYLQMYSLKPEDTAVYYCAKSRVSRTGLYTYDNRGQGTQVTVSSGGGGSGGGGSGGGGSGGGGSEVQLMESGGGLVQAGGSLRLSCAASGRTFNNYAMGWFRRAPGKEREFVAAITRSGVRSGVSAIYGDSVKDRFTISRDNAKNTLYLQMNSLKPEDTAVYTCAASAIGSGALRRFEYDYSGQGTQVTVSS
inhibitory potency on CXCL12-induced inositol phosphate accumulation (hCXCR4/Gαqi5; compared to monovalent counterparts and 12G5, FIG. 4): significantly increased inhibitory potency | Ki (CXCR4; [125I]-CXCL12 displacement, membranes from HEK293T cells transiently expressing CXCR4, read-out: Ki (nM) (receptor affinity)): 0.36 nM | Rel. potency (potency relative to those of monovalent 238D2) (CXCR4; footnote a: relative to monovalent 238D2): 27 | Rel. potency (potency relative to those of monovalent 238D4) (CXCR4; footnote b: relative to monovalent 238D4): 17 | increase in affinity to CXCR4 over monovalent counterpart 238D2 (CXCR4; relative to monovalent 238D2): 27 fold | increase in affinity to CXCR4 over monovalent counterpart 238D4 (CXCR4; relative to monovalent 238D4): 17 fold

B12: 08A10: Nanobody against human CXCR7, Group 2 (protein)
VHH: EVQLVESGGGLVQAGGSLRLSCAASGSIFSIAAMGWYRQATGKQRELVATITDGGTTTYADSVKGRVTISRDRSANTVYLAMNNLKPDDTAVYYCYAYLRYTSRVPGDNYWGQGTQVTVSS
modifications: Nanobody, Nanobody constructs or fragments thereof
effect of W19A mutation on binding (CXCR7 point mutants [1]): did not affect | epitope includes residue M33 (CXCR7 point mutants [2]): included residue M33 | competition with 14G03 binding to CXCR7 (CXCR7): compete

B13: vHH22A3 (protein)
VHH: EVQLVESGGGLVQAGGSLRLSCAASGNIFANNIMGWYRQPPGKEREFVAHVSHDGDSMYAVSVKGRFAISRKDATNLYLQMNSLKPEDTAIYFCRLLNIPTQGRMEGFWGQGTQVTVSS
Kd (PTHR; PTHR + CaCl2): 9 nM | Kd (PTHR; PTHR − CaCl2): 17 nM
